Legend:
[1] = test system: MMPpep-scram, (prA)GQGIPQGWGG(azK), as a DNA-peptide-DNA conjugate linking two DX tiles
[2] = test system: MMPpep, (prA)GGPQGIWGQG(azK), as the DNA1-MMPpep-DNA2 triblock conjugate linking two DX tiles

Chain of human matrix metalloproteinase 8 (chain, as listed by the source): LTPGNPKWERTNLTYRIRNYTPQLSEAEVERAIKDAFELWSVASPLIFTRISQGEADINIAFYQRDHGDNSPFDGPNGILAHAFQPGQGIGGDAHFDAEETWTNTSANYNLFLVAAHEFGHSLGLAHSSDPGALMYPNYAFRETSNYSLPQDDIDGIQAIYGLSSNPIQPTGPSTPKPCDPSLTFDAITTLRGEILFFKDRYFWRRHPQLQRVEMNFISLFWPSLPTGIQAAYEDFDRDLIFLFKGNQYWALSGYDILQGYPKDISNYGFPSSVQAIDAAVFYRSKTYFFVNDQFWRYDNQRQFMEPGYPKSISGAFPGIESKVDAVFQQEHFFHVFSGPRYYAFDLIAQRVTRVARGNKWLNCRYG

human matrix metalloproteinase 8
cleavage of DX tile dimer to individual tiles, native PAGE [1]: did not show any cleavage to individual tiles | cleavage of DX tile dimer to individual tiles, native PAGE [2]: Following addition of MMP8 (4 ng protein, incubation for 48 h at 37 °C in PBS) a single band is once again seen, corresponding to the individual tiles

Reference: patent publication US20230053360
